From US5147794

Tested on: KasI restriction endonuclease (recombinant, cell extract) (Kluyvera ascorbata)
Assay: cleavage_in_vitro
Conditions: lambda DNA, 37 C, 1 h; nearly 10^6

GGCGCC (double strand) [KasI recognition site (lambda DNA)]
activity (units per gram of cells): 1e+06
